1 molecule from paper PMC4595762, “Structural basis of Ornithine Decarboxylase inactivation and accelerated degradation by polyamine sensor Antizyme1” (Scientific Reports, 2015) can be followed below.

The target in this experiment is T1, Ornithine decarboxylase (human, UniProt P11926 1-461).
T1 construct: Ornithine decarboxylase, Homo sapiens, full length; Cloned into pGEX-6p-1; The complex was purified and crystallised with the co-factor PLP (1 mM); One ODC monomer stands in the complex with cAZ1; also called ODC; human ODC; source: E. coli BL21 (DE3), purified (glutathione Sepharose 4B, PreScission cleavage, Superdex-200)
T1 sequence (looked up): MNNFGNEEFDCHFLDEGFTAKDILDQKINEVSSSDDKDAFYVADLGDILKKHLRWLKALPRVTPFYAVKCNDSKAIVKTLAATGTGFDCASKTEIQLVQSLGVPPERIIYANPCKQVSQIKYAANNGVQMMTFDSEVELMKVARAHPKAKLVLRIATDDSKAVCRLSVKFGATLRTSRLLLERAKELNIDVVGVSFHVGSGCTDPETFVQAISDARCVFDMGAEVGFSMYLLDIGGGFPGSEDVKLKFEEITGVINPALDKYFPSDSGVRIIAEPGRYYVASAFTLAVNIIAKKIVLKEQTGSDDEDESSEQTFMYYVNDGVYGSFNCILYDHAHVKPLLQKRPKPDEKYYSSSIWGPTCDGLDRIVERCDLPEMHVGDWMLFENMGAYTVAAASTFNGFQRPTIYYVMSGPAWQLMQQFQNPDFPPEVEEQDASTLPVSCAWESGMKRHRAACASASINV
Kind of experiment: crystal structure; purified ODC and cAZ1 mixed on ice for 1 hour with cAZ1 in excess; complex purified on Superdex-200 in 20 mM Tris pH 8.5, 150 mM NaCl, 2 mM DTT, 1 mM PLP; hanging-drop crystals at 15 °C; 3.2 Å. The following applies: both partners purified.

B1: N-terminally truncated Antizyme1 (residues 69-228) (domain or fragment)
chain: not shown
notes: Antizyme1 (AZ1), Homo sapiens, N-terminally truncated, residues 69-228; Cloned into pGEX-6p-1; also called cAZ1; AZ1; source: E. coli BL21 (DE3), purified (glutathione Sepharose 4B, PreScission cleavage, Superdex-200)
For B1, the binding result is on record as “binds”.
